This note sets out measurements from patent publication US20240209334A1, “SMALL-MOLECULE-ACTIVATED GLYCAN MODIFYING ENZYMES AND USES THEREOF” (President and Fellows of Harvard College, priority 2022, published 2024).

Test [1] relates to O-GlcNAcylated proteins in HEK293T cells. As to the kind of experiment: Quantitative proteomics after enrichment for O-GlcNAc. The note with it: 25 μM OSMI-4b for 10 hours. The class given is cell-based, Homo sapiens. The procedure:
To further assess the spatial deglycosylation mediated by these subcellularly localized OGA-intein variants, quantitative proteomics was performed following enrichment for O-GlcNAc (38) on cell lysates after expression of C181-NLS with 4-HT treatment for 2 hours and 24 hours, respectively, or the OGT inhibitor OSMI-4b (3) for comparison (FIG. 4E and FIGS. 12A, 12B, 12C).
Chemoenzymatic labeling of O-GlcNAcylated proteins. Purification of GalT1 (Y289L) enzyme and labeling of O-GlcNAcylated proteins with GalNAz were performed according to the procedure of Hsich-Wilson and co-workers (51). Briefly, cell samples in 15-cm dishes were harvested and washed by PBS once. Cells were lysed in 2% SDS/PBS by heating at 95° C. for 5 minutes, followed by sonication. Protein concentrations were determined and then subjected to reduction and alkylation using 25 mM DTT at 95° C. for 5 minutes and 50 mM iodoacetamide at room temperature for 1 hour, respectively. Proteins were precipitated using the methanol/chloroform mix (aqueous phase: CH3OH:CHCl3=4:4:1) and resuspended in 1% SDS, 20 mM HEPES (pH 7.9) buffer with a concentration of 3.75 mg/mL. […]
Quantitative chemical proteomics. […]

The test system of test [2] is Nup62. As to the kind of experiment: Screen of intein insertion sites: OGA-intein variants co-expressed with Nup62 in HEK293T cells, immunoblot. The format is cell-based. The text has this: OGA is a multi-domain hydrolase responsible for O-GlcNAc removal in mammalian cells. Based on the reported crystal structures of OGA (27-29), the essential domains of the long splice variant of OGA were identified, and it was confirmed that the HAT domain is not required for its deglycosidase activity in cells (13). In addition, replacement of the disordered region between the catalytic domain and the stalk domain with a glycine-serine flexible linker (GS-linker) maintained its activity in live cells in the absence of the C-terminal HAT domain (13, 28). This variant, termed miniOGA, was selected as the initial template for engineering with an intein due to its smaller size and simpler structure (FIG. 2A). […] Inserting this evolved 4-HT-responsive intein into a site that abolishes miniOGA activity until protein splicing has taken place could result in a conditionally active OGA for O-GlcNAc removal under the control of 4-HT. As intein splicing would leave behind a single cysteine residue (22), and to minimize alterations on OGA protein sequence, cysteine residues across different structural domains and the GS-linker at miniOGA were selected as the candidate insertion sites, thus generating OGA-intein fusion constructs for nine positions in total (C62, C166, C181, C220, C316, C596, C631, C663, and the GS-linker) (FIG. 2A). The nine OGA-intein variants were transiently expressed in HEK293T cells together with a model glycoprotein Nup62. Cells were treated with or without 1 μM 4-HT for 24 hours after transfection. OGA-intein variants were then detected by the Myc tag to verify the expected splicing, and their enzymatic activities were evaluated by detection of O-GlcNAc on the substrate Nup62 following immunoprecipitation.
(§1) Immunoprecipitation and Immunoblot assays. […]
(§2) For immunoblotting analysis, proteins were transferred to a nitrocellulose membrane using an iBlot system (Invitrogen). […] Immunoblot images were captured using Azure Imager C600 and analyzed with Fiji ImageJ for converting all IR fluorescence western blot images to grayscale images.
On the technique in general: A western blot detects proteins with antibodies after separation by electrophoresis.

Test [3] deals with Nup62. Nature of the test: Spatial deglycosylation of cytoplasmic Nup62 by OGA-intein(C181) variants in HEK293T cells. The format is cell-based. Conditions: cytoplasmic Nup62 co-expressed. The procedure:
(§3) Next, it was assessed whether these OGA-intein(C181) variants enable selective spatial deglycosylation in live cells. As O-GlcNAc affects the subcellular localization of many proteins (37), Nup62 was used as a model cytoplasmic substrate, which was previously primarily localized in the cytoplasm when transiently overexpressed in HEK293T cells independent of the O-GlcNAcylation state (13) (FIGS. 11A, 11B). Nup62 was co-expressed with three OGA-intein(C181) variants (C181-WT, C181-NLS, and C181-NES) in HEK293T cells, and Nup62 was enriched for O-GlcNAc measurement. […] Next, Nup62 was localized to the nucleus by attachment to an NLS tag (Nup62-NLS), and a similar coexpression and 4-HT-triggered activation was performed with OGA-intein(C181) variants. […] The fluorescent intensity of OGA-intein variants also show a strong correlation to the localization of Nup62, indicating the desired subcellular distribution (FIGS. 11A-C).
as §1, §2

Another test concerns Nup62-NLS. As to the kind of experiment: Spatial deglycosylation of nuclear Nup62-NLS by OGA-intein(C181) variants in HEK293T cells. The class given is cell-based. The note with it: nuclear Nup62-NLS co-expressed. The procedure:
as §3, §1, §2

Test [4] has as its system global O-GlcNAc level in MCF-7 cells. As to the kind of experiment: Immunoblot of global O-GlcNAc level and splicing in MCF-7 stable cell lines. The format is cell-based, human. The note with it: MCF-7 cells stably expressing the variant. The text has this:
In addition to serving as an activator for intein splicing, 4-HT is also known as the active metabolite of tamoxifen, an FDA-approved drug for treating breast cancer patients. Breast cancer cells also have elevated OGT expression (39) and decreased levels of OGA (40, 41), resulting in elevated O-GlcNAcylation in the proteome. OGT is usually required for tumor growth and metastasis (39), and low OGA expression is correlated with poor survival in breast cancer patients (FIG. 13). The ER positive breast cancer-derived MCF-7 cell line is sensitive to tamoxifen and 4-HT, resulting in suppression of cell proliferation, yet drug resistance occurs after long-term treatment (42). Previous studies also show evidence that upregulation of O-GlcNAcylation protects MCF-7 cells from tamoxifen-induced cell death (43). To determine if reduction of O-GlcNAc sensitized MCF-7 cells to 4-HT treatment, it was assessed whether 4-HT induced inhibition of breast cancer cell proliferation and OGA-intein activation worked synergistically to accelerate cell death (FIG. 5A). […] Next, these two cell lines were treated with 4-HT at increasing concentrations, and cell viability was measured after 48 hours. […] Given that 4-HT promoted MCF-7 cell death through apoptosis (43), the apoptosis of these cells under 4-HT treatment was further analyzed through flow cytometry analyses following Annexin V and DAPI staining. […]

Regarding `CCOC(=O)CN(Cc1cccs1)C(=O)[C@H](NS(=O)(=O)c1cc2ccc(=O)[nH]c2cc1Cl)c1ccccc1OC` [OSMI-4b], the “change of O-GlcNAc on nuclear and cytoplasmic proteins” value in test [1] is “mild reduction of O-GlcNAc on both nuclear and cytoplasmic proteins”.

B1: OGA-intein(C181): miniOGA with the 4-HT-responsive evolved intein inserted at C181 (protein)
chain: MEQKLISEEDLAIAMVQKESQATLEERESELSSNPAASAGASLEPPAAPAPGEDNPAGAGGAAVAGAAGGARRFLCGVVEGFYGRPWVMEQRKELFRRLQKWELNTYLYAPKDDYKHRMFWREMYSVEEAEQLMTLISAAREYEIEFIYAISPGLDITFSNPKEVSTLKRKLDQVSQFGCRSFALLFDDIDHNMCLAEGTRIFDPVTGTTHRIEDVVDGRKPIHVVAAAKDGTLLARPVVSWFDQGTRDVIGLRIAGGAIVWATPDHKVLTEYGWRAAGELRKGDRVAGPGGSGNSLALSLTADQMVSALLDAEPPILYSEYDPTSPFSEASMMGLLTNLADRELVHMINWAKRVPGFVDLTLHDQAHLLERAWLEILMIGLVWRSMEHPGKLLFAPNLLLDRNQGKCVEGMVEIFDMLLATSSRFRMMNLQGEEFVCLKSIILLNSGVYTFLSSTLKSLEEKDHIHRALDKITDTLIHLMAKAGLTLQQQHQRLAQLLLILSHIRHMSNKGMEHLYSMKYKNVVPLYDLLLEMLDAHRLHAGGSGASRVQAFADALDDKFLHDMLAEGLRYSVIREVLPTRRARTFDLEVEELHTLVAEGVVVHNCAADKEVFSSFAHAQVSITNEIYQYLGEPETFLFCPTEYCGTFCYPNVSQSPYLRTVGEKLLPGIEVLWTGPKVVSKEIPVESIEEVSKIIKRAPVIWDNIHANDYDQKRLFLGPYKGRSTELIPRLKGVLTNPNCEFEANYVAIHTLATWYKSNMNGVRKDVVMTDSEDSTVSIQIKLENEGSDEDIETDVLYSPQMALKLALTEWLQEFGVPHQYSSRGSGSGSGSGSGSGSGEKPLYTAEPVTLEDLQLLADLFYLPYEHGPKGAQMLREFQWLRANSSVVSVNCKGKDSEKIEEWRSRAAKFEEMCGLVMGMFTRLSNCANRTILYDMYSYVWDIKSIMSMVKSFVQWLGCRSHSSAQFLIGDQEPWAFRGGLAGEFQRLLPIDGANDLFFQPP
Consider B1, for which, in the test with Nup62 [2] (1 μM 4-HT for 24 hours, Myc tag detection), the “intein splicing / spliced product on 4-HT treatment” value is reported as “yielding the active spliced product”. Further, the “deglycosylation activity in the presence of 4-HT” value in the test on Nup62 [2] (co-expressed Nup62, 1 μM 4-HT for 24 hours) was “high deglycosylation activity”. Also, the “OGA activity (deglycosylation of Nup62) in the absence of 4-HT” value in the test on Nup62 [2] (co-expressed Nup62, without 4-HT) was “little activity”. In the test with Nup62 [3], the “removal of O-GlcNAc from Nup62 after 4-HT-triggered activation” value is listed as “removed O-GlcNAc from Nup62”. For the same molecule, in the test with Nup62-NLS, the “4-HT-induced deglycosylation of Nup62-NLS” value is given as 4-HT-induced deglycosylation. Also, in test [4], the “global O-GlcNAc level after adding 4-HT” value was “decreased global O-GlcNAc level”.
